From article PMC3091828 (Biochemistry, 2011) come the findings set out here.

For orientation: Kd means the equilibrium constant for the complex coming apart. Read a high Kd as weaker binding.

The test addresses MBP-parkin (UniProt O60260 1-465). As to the kind of experiment: fluorescence polarisation. In general terms: Fluorescence polarisation rises when a labelled molecule tumbles more slowly, as on binding a larger partner.

MBP-parkin, sequence (O60260 whole entry): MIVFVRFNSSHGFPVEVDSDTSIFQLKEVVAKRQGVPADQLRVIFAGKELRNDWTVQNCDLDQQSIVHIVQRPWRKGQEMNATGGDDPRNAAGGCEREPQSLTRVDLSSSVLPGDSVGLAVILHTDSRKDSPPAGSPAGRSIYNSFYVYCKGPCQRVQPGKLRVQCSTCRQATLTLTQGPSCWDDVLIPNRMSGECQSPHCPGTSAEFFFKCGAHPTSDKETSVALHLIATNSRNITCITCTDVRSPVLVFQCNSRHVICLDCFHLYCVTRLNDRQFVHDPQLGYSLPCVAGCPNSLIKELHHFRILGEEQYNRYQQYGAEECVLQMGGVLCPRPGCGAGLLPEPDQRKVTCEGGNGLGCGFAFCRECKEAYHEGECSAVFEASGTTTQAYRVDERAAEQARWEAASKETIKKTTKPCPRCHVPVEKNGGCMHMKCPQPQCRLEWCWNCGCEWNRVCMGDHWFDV

B1: CL-arrestin-1-F79C, bimane-labeled (natural protein)
chain: MKANKPAPNHVIFKKISRDKSVTIYLGKRDYIDHVERVEPVDGVVLVDPELVKGKRVYVSLTAAFRYGQEDIDVMGLSCRRDLYFSQVQVFPPVGASGATTRLQESLIKKLGANTYPFLLTFPDYLPSSVMLQPAPQDVGKSAGVDFEIKAFATHSTDVEEDKIPKKSSVRLLIRKVQHAPRDMGPQPRAEASWQFFMSDKPLRLAVSLSKEIYYHGEPIPVTVAVTNSTEKTVKKIKVLVEQVTNVVLYSSDYYIKTVAAEEAQEKVPPNSSLTKTLTLVPLLANNRERRGIALDGKIKHEDTNLASSTIIKEGIDKTVMGILVSYQIKVKLTVSGLLGELTSSEVATEVPFRLMHPQPEDPDTAKESFQDENFVFEEFARQNLKDAGEYKEEKTDQEAAMDE
modifications: monobromobimane label on the unique cysteine (F79C)
B1 came in with a Kd of 15.5 µM. In other words, the double-digit micromolar range.

B2: CL-arrestin-3-F88C, bimane-labeled (natural protein, UniProt P32120-2 1-409, looked up)
chain: MGEKPGTRVFKKSSPNSKLTVYLGKRDFVDHLDKVDPVDGVVLVDPDYLKDRKVFVTLTVAFRYGREDLDVLGLSFRKDLFIANYQACPPTPNPPRPPTRLQERLLRKLGQHAHPFFFTIPQNLPSSVTLQPGPEDTGKALGVDFEIRAFVAKSLEEKSHKRNSVRLVIRKVQFAPEKPGPQPSAETTRHFLMSDRSLHLEASLDKELYYHGEPLNVNVHVTNNSTKTVKKIKVSVRQYADIVLFSTAQYKVPVAQVEQDDQVSPSSTFSKVYTITPLLSNNREKRGLALDGKLKHEDTNLASSTIVKEGANKEVLGILVSYRVKVKLVVSRGGDVSVELPFVLMHPKPHDHIALPRPQSAAPETDAPVDTNLIEFETNYATDDDIVFEDFARLRLKGLKDEDYDDQFS
modifications: monobromobimane label on the unique cysteine (F88C)
Turning to B2, the affinity, expressed as Kd, was 3.36 µM.
